Earlier results on one substance are cited in publication PMC10875074.

This series concerns the target CD155 (poliovirus receptor, Necl-5) (Homo sapiens) (UniProt P15151).
UniProt P15151, sequence (P15151 21-343): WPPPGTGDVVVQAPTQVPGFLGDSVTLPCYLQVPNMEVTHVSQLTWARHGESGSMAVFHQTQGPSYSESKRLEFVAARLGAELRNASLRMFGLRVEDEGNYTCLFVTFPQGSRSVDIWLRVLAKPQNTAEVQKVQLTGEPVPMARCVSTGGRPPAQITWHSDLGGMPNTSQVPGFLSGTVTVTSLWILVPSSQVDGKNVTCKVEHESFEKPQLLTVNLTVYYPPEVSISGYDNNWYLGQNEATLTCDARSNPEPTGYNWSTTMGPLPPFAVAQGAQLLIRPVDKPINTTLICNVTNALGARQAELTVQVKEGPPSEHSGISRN

In the case of TIGIT (from UniProt Q495A1), the equilibrium dissociation constant (Kd) (in general, the constant that tells how readily two partners part at equilibrium) is 2 nM.
